target: MtAHL1 (Medicago truncatula) (UniProt G7JGG2); assay: EMSA; conditions: EMSA as in Chen (ref. 37), 10 ng probe and 200 ng protein (titration 0-300 ng), SYBR Gold stain; binding buffer, pH and temperature not stated; protein eluted …
Sequence (G7JGG2 entry or part of it): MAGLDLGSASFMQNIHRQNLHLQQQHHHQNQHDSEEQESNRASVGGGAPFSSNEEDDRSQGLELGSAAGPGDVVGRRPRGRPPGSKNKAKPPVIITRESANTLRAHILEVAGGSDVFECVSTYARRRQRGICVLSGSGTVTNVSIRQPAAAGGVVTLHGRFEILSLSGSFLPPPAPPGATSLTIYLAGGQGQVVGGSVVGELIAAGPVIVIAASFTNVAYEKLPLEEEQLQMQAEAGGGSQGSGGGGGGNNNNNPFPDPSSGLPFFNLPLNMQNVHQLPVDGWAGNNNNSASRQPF

Sequence | binding
CCCATTGTTTTTCCCCTTTGCGTGAAATAAGTGTAAAATTATTTTATCACTTTATATAGTAAAAAATCAAATGATATGTTTACATCAACAAAACAGTTTTTAATAATTATGTTGTTGTAATTAATAC (double strand) [probe D] | binds more weakly
CTTTCTTTTATACAAATCATAAAATTATTACTTATAAATAGAGCTCATTATTGTTTAACAACCTTTCATTATTATTTTTTATTTCTTAGCCAGCCTTTCATAATAGAG (double strand) [probe B] | binds more weakly
GAAAGTAATAATTTTGAGACATCTATTCTATGAGCCAAAGAGACAACTACGATACATCAACGTATTAAAGAGACATTTAATAATTATTTTAATTTTCAAAAAGTATTAATTAC (double strand) [probe C] | binds
GACAACTACGATACATCAACGTATTAAAGAGACATTTAATAATTATTTTAATTTTCAAAAAGTATTAATTACAACAACATAATTATTAAAAACTGTTTTGTTGATGTAAACATATC (double strand) [probe G] | binds
GAGATAGGAAAACCAATATTATATTATGTTGATATGAGTGGGTGTGGAATCACACAACGTGAATAAGGTCTCTTGTTTGAGTCTTGTGGTTAAATAAAACGTG (double strand) [probe A] | binds more weakly
GTTAAACAATAATGAGCTCTATTTATAAGTAATAATTTTATGATTTGTATAAAAGAAAGTAATAATTTTGAGACATCTATTCTATGAGCCAAAGAGACAAC (double strand) [probe F] | binds more weakly
GTTTAACAACCTTTCATTATTATTTTTTATTTCTTAGCCAGCCTTTCATAATAGAGATAGGAAAACCAATATTATATTATGTTGATATGAGTGGGTGTGGAATCA (double strand) [probe E] | binds more weakly
